Measurements: publication PMC6555819, “Comprehensive study of nuclear receptor DNA binding provides a revised framework for understanding receptor specificity”
Residue numbers refer to the chain shown, from its start.

B1: NRC3_wobSeed121_DR5_C7A_o1 (dsDNA)
DNA 1: GCCAAAATAGGTCACCGGAAGGTCAAAGTCCGCATGGCGATTGACAGCGTAGAATGAAGG
DNA 2: CCTTCATTCTACGCTGTCAATCGCCATGCGGACTTTGACCTTCCGGTGACCTATTTTGGC
B2: NRC3_wobSeed25_DR1_C7A_o1 (dsDNA)
DNA 1: GCCAAAATAGGTCAAAGGTCAAAGTCGAGCCAACCAGCGATTGACAGCGTAGAATGAAGG
DNA 2: CCTTCATTCTACGCTGTCAATCGCTGGTTGGCTCGACTTTGACCTTTGACCTATTTTGGC
B3: NRC3_wobSeed133_DR5_C7A_o1 (dsDNA)
DNA 1: GCCGTCAAAGGTCAATGCTAGGTCAGTGAAAGCATTGCGATTGACAGCGTAGAATGAAGG
DNA 2: CCTTCATTCTACGCTGTCAATCGCAATGCTTTCACTGACCTAGCATTGACCTTTGACGGC
B4: NRC3_wobSeed21_DR0_T11G_o1 (dsDNA)
DNA 1: GCCGTCAAAGGTCAAGGTAACGTAACAGAAAGCAGCGCGATTGACAGCGTAGAATGAAGG
DNA 2: CCTTCATTCTACGCTGTCAATCGCGCTGCTTTCTGTTACGTTACCTTGACCTTTGACGGC
B5: NRC3_wobSeed130_DR5_G14A_o1 (dsDNA)
DNA 1: GCCTCGAAAGGTCATGCTCAGGTGAGTATACCAAACGCGATTGACAGCGTAGAATGAAGG
DNA 2: CCTTCATTCTACGCTGTCAATCGCGTTTGGTATACTCACCTGAGCATGACCTTTCGAGGC
B6: NRC3_wobSeed10_DR0_G14A_o1 (dsDNA)
DNA 1: GCATCGAAAGGTCAAGGTGAGTATAGAGAAAGGGAAGCGATTGACAGCGTAGAATGAAGG
DNA 2: CCTTCATTCTACGCTGTCAATCGCTTCCCTTTCTCTATACTCACCTTGACCTTTCGATGC
B7: NRC3_wobSeed82_DR3_G14A_o1 (dsDNA)
DNA 1: GCATCGAAAGGTCAACGAGGTGAGTATACACCGTTTGCGATTGACAGCGTAGAATGAAGG
DNA 2: CCTTCATTCTACGCTGTCAATCGCAAACGGTGTATACTCACCTCGTTGACCTTTCGATGC
B8: NRC3_wobSeed37_DR1_C7A_o1 (dsDNA)
DNA 1: GCCGTCAAAGGTCAAAGGTCAGTGAAGAGATGACGGGCGATTGACAGCGTAGAATGAAGG
DNA 2: CCTTCATTCTACGCTGTCAATCGCCCGTCATCTCTTCACTGACCTTTGACCTTTGACGGC
B9: NRC3_random_hg19_428_o1 (dsDNA)
DNA 1: GCGAGATTGGAAGGCTTCCAGATGCAAGGCTGTGGCGCGATTGACAGCGTAGAATGAAGG
DNA 2: CCTTCATTCTACGCTGTCAATCGCGCCACAGCCTTGCATCTGGAAGCCTTCCAATCTCGC
B10: NRC3_wobSeed50_DR2_C25T_o1 (dsDNA)
DNA 1: GCCCTAGTTGGTCAGGAGGTCACATACCGGATATGAGCGATTGACAGCGTAGAATGAAGG
DNA 2: CCTTCATTCTACGCTGTCAATCGCTCATATCCGGTATGTGACCTCCTGACCAACTAGGGC
B11: NRC3_wobSeed25_DR1_A6G_o1 (dsDNA)
DNA 1: B2 DNA 1 with A6G, A7C
DNA 2: B2 DNA 2 with T54G, T55C
B12: NRC3_wobSeed106_DR4_G23C_o1 (dsDNA)
DNA 1: GCCTCGAAAGGTCGGTTGAGGTCAGTATACGGATAAGCGATTGACAGCGTAGAATGAAGG
DNA 2: CCTTCATTCTACGCTGTCAATCGCTTATCCGTATACTGACCTCAACCGACCTTTCGAGGC
B13: NRC3_wobSeed5_DR0_C4T_o1 (dsDNA)
DNA 1: GCCTTTACGGGTCAAGGTTATAGCACGGGTGGTACGGCGATTGACAGCGTAGAATGAAGG
DNA 2: CCTTCATTCTACGCTGTCAATCGCCGTACCACCCGTGCTATAACCTTGACCCGTAAAGGC
B14: NRC3_wobSeed137_DR5_A5G_o1 (dsDNA)
DNA 1: GCATGTGTAGGTTACATCCGGGTCATTCAGGCTATGGCGATTGACAGCGTAGAATGAAGG
DNA 2: CCTTCATTCTACGCTGTCAATCGCCATAGCCTGAATGACCCGGATGTAACCTACACATGC
B15: NRC3_wobSeed66_DR2_A17G_o1 (dsDNA)
DNA 1: GCAATACAGGGTCACTGGGCCAGAGTAGGTACGAATGCGATTGACAGCGTAGAATGAAGG
DNA 2: CCTTCATTCTACGCTGTCAATCGCATTCGTACCTACTCTGGCCCAGTGACCCTGTATTGC
B16: NRC3_wobSeed89_DR3_G16T_o1 (dsDNA)
DNA 1: GCCTATGTAGGTTAATGGGGTCATTCAGTTTGAAAGGCGATTGACAGCGTAGAATGAAGG
DNA 2: CCTTCATTCTACGCTGTCAATCGCCTTTCAAACTGAATGACCCCATTAACCTACATAGGC
B17: NRC3_wobSeed61_DR2_T5C_o1 (dsDNA)
DNA 1: GCCGCCCAAGGTCAGCAGGTCAGTGAAAGCGACGTGGCGATTGACAGCGTAGAATGAAGG
DNA 2: CCTTCATTCTACGCTGTCAATCGCCACGTCGCTTTCACTGACCTGCTGACCTTGGGCGGC
B18: NRC3_wobSeed113_DR4_T8G_o1 (dsDNA)
DNA 1: GCATATGGAGGTTAGCTGGGGTCATTCAGACTAGGCGCGATTGACAGCGTAGAATGAAGG
DNA 2: CCTTCATTCTACGCTGTCAATCGCGCCTAGTCTGAATGACCCCAGCTAACCTCCATATGC
B19: NRC3_wobSeed130_DR5_T29C_o1 (dsDNA)
DNA 1: B5 DNA 1 with A14G, T29C
DNA 2: B5 DNA 2 with A32G, T47C
B20: NRC3_wobSeed37_DR1_C7T_o1 (dsDNA)
DNA 1: B8 DNA 1 with A7T
DNA 2: B8 DNA 2 with T54A
B21: NRC3_wobSeed45_DR1_A8G_o1 (dsDNA)
DNA 1: GCTGTCAGAGTTCAAAGGTAACGTAAGTATCCACACGCGATTGACAGCGTAGAATGAAGG
DNA 2: CCTTCATTCTACGCTGTCAATCGCGTGTGGATACTTACGTTACCTTTGAACTCTGACAGC

Target: RXRa (Homo sapiens, UniProt P19793)
Test: no ligand; PBM; 180 nM; PBS pH 7.4, 2% milk, 0.02% Triton X-100, 1 mM DTT, BSA, 0.4 mg/ml salmon testes DNA
Conditions: tags: His cleaved; chain copies: 2; label: surface-attached array probe

RXRa, sequence (P19793 whole entry): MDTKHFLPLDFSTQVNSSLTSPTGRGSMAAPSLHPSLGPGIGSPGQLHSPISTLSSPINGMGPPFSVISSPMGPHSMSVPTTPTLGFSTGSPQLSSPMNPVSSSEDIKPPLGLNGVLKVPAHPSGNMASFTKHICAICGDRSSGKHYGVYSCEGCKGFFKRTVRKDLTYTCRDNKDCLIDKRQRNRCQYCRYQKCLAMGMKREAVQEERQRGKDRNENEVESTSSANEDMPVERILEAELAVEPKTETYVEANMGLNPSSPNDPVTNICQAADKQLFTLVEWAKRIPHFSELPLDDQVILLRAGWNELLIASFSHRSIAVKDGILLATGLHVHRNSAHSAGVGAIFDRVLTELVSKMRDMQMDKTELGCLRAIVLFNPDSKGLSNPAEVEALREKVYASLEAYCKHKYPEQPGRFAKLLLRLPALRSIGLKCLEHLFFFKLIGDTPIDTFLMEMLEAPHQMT

Point of comparison: B6, binding signal 8.13 PBM z-score against 500 random probes. Against it:
- B1 — lower, 7.97 PBM z-score against 500 random probes
- B2 — higher, 10.9 PBM z-score against 500 random probes
- B3 — lower, 8.08 PBM z-score against 500 random probes
- B4 — higher, 8.42 PBM z-score against 500 random probes
- B5 — higher, 8.8 PBM z-score against 500 random probes
- B7 — higher, 8.25 PBM z-score against 500 random probes
- B8 — higher, 11 PBM z-score against 500 random probes

Target: RARb:RXRa (Homo sapiens, UniProt P10826;P19793 full;full)
Test: no ligand; PBM; 270 nM : 90 nM RXRa; PBS pH 7.4, 2% milk, 0.02% Triton X-100, 1 mM DTT, BSA, 0.4 mg/ml salmon testes DNA
Conditions: tags: His kept;His cleaved; copies: 1;1; label: surface-attached array probe
In short: (§1)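 On custom Agilent 4×180K arrays, double-stranded probes with 34-nt variable regions carried direct-repeat seeds, single-nucleotide variants, half-site ablations or random human genomic background. Ligand-free nuclear receptor dimers were applied for 1 h, and binding was read with antibodies against each partner (one per run). Binding z-scores come from regression-normalized fluorescence, with the random background probes as reference.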

RARb:RXRa, sequence (P10826 whole entry, chain 1 of 2): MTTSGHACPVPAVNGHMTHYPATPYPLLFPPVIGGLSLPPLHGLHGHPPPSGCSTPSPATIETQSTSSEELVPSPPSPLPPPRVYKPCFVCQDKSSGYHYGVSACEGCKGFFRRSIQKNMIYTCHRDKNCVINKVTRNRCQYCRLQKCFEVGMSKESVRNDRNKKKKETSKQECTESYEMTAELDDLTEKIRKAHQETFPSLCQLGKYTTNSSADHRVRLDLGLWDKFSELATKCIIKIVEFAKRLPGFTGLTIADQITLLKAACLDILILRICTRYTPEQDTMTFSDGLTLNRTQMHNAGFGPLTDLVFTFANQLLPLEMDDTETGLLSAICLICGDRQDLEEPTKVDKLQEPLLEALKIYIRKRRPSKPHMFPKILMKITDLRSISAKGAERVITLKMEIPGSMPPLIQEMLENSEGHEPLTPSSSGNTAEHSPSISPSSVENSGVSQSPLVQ
RARb:RXRa, sequence (P19793 whole entry, chain 2 of 2): as the sequence (P19793 whole entry) above

Point of comparison: B1, binding signal 5.81 PBM z-score against 500 random probes. Against it:
- B2 — higher, 6.18 PBM z-score against 500 random probes
- B3 — higher, 6.04 PBM z-score against 500 random probes
- B4 — higher, 6.57 PBM z-score against 500 random probes
- B5 — higher, 5.96 PBM z-score against 500 random probes
- B6 — higher, 6.24 PBM z-score against 500 random probes
- B7 — higher, 6.1 PBM z-score against 500 random probes
- B8 — higher, 6.32 PBM z-score against 500 random probes

Target: VDR:RXRa (Homo sapiens, UniProt P11473;P19793 full;full)
Test: as above
Conditions: tags: His kept;His cleaved; copies: 1;1; label: surface-attached array probe
In short: as §1

VDR:RXRa, sequence (P11473 whole entry, chain 1 of 2): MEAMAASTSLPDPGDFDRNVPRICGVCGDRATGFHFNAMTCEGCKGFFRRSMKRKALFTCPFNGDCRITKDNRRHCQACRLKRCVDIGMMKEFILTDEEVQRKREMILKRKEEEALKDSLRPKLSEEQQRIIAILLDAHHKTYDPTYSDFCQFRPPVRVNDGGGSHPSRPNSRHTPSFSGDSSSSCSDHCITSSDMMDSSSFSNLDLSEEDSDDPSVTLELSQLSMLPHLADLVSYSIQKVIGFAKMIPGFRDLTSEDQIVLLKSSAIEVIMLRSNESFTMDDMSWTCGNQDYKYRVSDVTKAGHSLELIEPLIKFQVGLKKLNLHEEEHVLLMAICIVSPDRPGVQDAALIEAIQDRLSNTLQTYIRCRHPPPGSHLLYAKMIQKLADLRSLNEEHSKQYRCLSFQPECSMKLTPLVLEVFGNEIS
VDR:RXRa, sequence (P19793 whole entry, chain 2 of 2): as the sequence (P19793 whole entry) above

Point of comparison: B9, binding signal -1.12 PBM z-score against 500 random probes. Against it:
- B1 — higher, 6.58 PBM z-score against 500 random probes
- B2 — higher, 7.13 PBM z-score against 500 random probes
- B7 — higher, 7.33 PBM z-score against 500 random probes
- B8 — higher, 7.1 PBM z-score against 500 random probes

Target: LXRa:RXRa (Homo sapiens, UniProt Q13133;P19793 full;full)
Test: as above
Conditions: tags: His kept;His cleaved; copies: 1;1; label: surface-attached array probe
In short: as §1

LXRa:RXRa, sequence (Q13133 whole entry, chain 1 of 2): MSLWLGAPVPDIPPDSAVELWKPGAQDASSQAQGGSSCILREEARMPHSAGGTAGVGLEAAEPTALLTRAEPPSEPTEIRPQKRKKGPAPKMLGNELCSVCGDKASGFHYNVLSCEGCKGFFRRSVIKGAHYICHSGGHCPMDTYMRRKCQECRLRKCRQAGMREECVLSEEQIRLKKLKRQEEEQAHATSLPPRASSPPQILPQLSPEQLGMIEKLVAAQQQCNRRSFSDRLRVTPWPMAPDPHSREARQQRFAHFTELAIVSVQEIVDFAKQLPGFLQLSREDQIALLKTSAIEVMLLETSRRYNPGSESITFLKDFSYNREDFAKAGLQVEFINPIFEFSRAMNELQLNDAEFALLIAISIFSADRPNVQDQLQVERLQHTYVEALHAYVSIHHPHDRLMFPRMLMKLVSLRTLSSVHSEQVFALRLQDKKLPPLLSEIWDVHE
LXRa:RXRa, sequence (P19793 whole entry, chain 2 of 2): as the sequence (P19793 whole entry) above

Point of comparison: B7, binding signal 7.22 PBM z-score against 500 random probes. Against it:
- B9 — lower, -1.14 PBM z-score against 500 random probes
- B1 — lower, 7 PBM z-score against 500 random probes
- B2 — higher, 7.77 PBM z-score against 500 random probes
- B3 — lower, 6.75 PBM z-score against 500 random probes
- B4 — lower, 6.81 PBM z-score against 500 random probes
- B5 — lower, 7.19 PBM z-score against 500 random probes
- B6 — lower, 7.08 PBM z-score against 500 random probes
- B8 — higher, 7.91 PBM z-score against 500 random probes

Target: PPARa:RXRa (Homo sapiens, UniProt Q07869;P19793 full;full)
Test: as above
Conditions: tags: GST kept;His cleaved; copies: 1;1; label: surface-attached array probe
In short: as §1

PPARa:RXRa, sequence (Q07869 whole entry, chain 1 of 2): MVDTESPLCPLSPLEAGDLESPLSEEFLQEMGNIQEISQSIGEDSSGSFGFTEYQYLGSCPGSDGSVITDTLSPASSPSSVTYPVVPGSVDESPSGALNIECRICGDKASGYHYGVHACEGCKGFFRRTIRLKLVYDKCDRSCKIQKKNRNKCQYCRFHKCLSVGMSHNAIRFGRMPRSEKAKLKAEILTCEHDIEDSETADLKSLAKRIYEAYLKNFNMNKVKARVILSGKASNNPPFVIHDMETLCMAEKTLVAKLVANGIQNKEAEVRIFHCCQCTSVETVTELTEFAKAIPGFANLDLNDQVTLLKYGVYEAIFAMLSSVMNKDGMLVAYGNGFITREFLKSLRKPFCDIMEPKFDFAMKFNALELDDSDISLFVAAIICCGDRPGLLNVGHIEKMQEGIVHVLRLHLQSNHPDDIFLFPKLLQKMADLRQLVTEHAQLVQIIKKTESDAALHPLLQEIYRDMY
PPARa:RXRa, sequence (P19793 whole entry, chain 2 of 2): as the sequence (P19793 whole entry) above

Point of comparison: B8, binding signal 7.54 PBM z-score against 500 random probes. Against it:
- B3 — lower, 6.56 PBM z-score against 500 random probes
- B4 — lower, 6.99 PBM z-score against 500 random probes
- B5 — lower, 6.66 PBM z-score against 500 random probes
- B6 — lower, 7.41 PBM z-score against 500 random probes
- B7 — lower, 6.87 PBM z-score against 500 random probes

Target: LXRb:RXRa (Homo sapiens, UniProt P55055;P19793 full;full)
Test: as above
Conditions: tags: His kept;His cleaved; copies: 1;1; label: surface-attached array probe
In short: as §1

LXRb:RXRa, sequence (P55055 whole entry, chain 1 of 2): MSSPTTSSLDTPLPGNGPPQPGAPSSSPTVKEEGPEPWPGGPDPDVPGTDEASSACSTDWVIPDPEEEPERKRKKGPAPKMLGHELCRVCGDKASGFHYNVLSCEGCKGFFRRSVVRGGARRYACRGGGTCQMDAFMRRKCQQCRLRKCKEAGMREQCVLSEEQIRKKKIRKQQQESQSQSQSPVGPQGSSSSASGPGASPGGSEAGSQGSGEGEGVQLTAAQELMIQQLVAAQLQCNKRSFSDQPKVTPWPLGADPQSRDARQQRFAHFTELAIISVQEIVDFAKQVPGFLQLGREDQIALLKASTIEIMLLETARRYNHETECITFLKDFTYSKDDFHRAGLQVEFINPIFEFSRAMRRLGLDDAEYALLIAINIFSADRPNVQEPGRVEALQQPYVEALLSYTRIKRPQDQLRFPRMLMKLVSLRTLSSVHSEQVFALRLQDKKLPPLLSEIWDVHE
LXRb:RXRa, sequence (P19793 whole entry, chain 2 of 2): as the sequence (P19793 whole entry) above

Point of comparison: B9, binding signal -1.31 PBM z-score against 500 random probes. Against it:
- B1 — higher, 6.15 PBM z-score against 500 random probes
- B2 — higher, 7.8 PBM z-score against 500 random probes
- B3 — higher, 6.22 PBM z-score against 500 random probes
- B4 — higher, 6.12 PBM z-score against 500 random probes
- B5 — higher, 5.85 PBM z-score against 500 random probes
- B6 — higher, 5.9 PBM z-score against 500 random probes
- B7 — higher, 6.3 PBM z-score against 500 random probes
- B8 — higher, 7.7 PBM z-score against 500 random probes

Target: FXR:RXRa (Homo sapiens, UniProt Q96RI1;P19793 full;full)
Test: as above
Conditions: tags: His kept;His cleaved; copies: 1;1; label: surface-attached array probe
In short: as §1

FXR:RXRa, sequence (Q96RI1 whole entry, chain 1 of 2): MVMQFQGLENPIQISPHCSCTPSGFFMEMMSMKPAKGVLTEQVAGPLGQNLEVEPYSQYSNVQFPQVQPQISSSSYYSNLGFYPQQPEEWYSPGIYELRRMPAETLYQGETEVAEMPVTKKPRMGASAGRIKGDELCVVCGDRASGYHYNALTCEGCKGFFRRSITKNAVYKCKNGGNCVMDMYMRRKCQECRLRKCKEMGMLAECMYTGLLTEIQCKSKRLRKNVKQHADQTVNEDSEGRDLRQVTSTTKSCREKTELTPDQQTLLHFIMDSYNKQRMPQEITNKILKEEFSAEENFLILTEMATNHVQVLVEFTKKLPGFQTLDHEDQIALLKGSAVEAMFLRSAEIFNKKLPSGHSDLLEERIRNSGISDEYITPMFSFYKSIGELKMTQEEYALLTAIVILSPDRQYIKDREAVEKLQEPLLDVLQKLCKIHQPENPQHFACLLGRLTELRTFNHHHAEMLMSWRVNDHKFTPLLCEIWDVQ
FXR:RXRa, sequence (P19793 whole entry, chain 2 of 2): as the sequence (P19793 whole entry) above

Point of comparison: B3, binding signal 8.38 PBM z-score against 500 random probes. Against it:
- B2 — higher, 8.93 PBM z-score against 500 random probes
- B4 — higher, 9.02 PBM z-score against 500 random probes
- B5 — lower, 8.36 PBM z-score against 500 random probes
- B6 — lower, 8.27 PBM z-score against 500 random probes
- B7 — higher, 8.61 PBM z-score against 500 random probes
- B8 — higher, 9.14 PBM z-score against 500 random probes

Target: PXR:RXRa (Homo sapiens, UniProt O75469;P19793 full;full)
Test: as above
Conditions: tags: His kept;His cleaved; copies: 1;1; label: surface-attached array probe
In short: as §1

PXR:RXRa, sequence (O75469 whole entry, chain 1 of 2): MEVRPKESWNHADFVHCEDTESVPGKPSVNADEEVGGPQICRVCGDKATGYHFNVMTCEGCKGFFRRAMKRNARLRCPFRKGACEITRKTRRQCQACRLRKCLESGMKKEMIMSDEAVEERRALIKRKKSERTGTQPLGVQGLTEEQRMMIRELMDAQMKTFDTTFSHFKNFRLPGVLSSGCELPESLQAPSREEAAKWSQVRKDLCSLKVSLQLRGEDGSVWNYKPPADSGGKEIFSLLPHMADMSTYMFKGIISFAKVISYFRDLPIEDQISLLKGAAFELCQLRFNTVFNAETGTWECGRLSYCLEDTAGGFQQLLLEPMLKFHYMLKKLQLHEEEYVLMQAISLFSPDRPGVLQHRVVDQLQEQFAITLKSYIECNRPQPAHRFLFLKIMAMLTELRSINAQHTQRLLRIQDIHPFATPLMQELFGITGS
PXR:RXRa, sequence (P19793 whole entry, chain 2 of 2): as the sequence (P19793 whole entry) above

Point of comparison: B13, binding signal 3.7 PBM z-score against 500 random probes. Against it:
- B10 — lower, 3.69 PBM z-score against 500 random probes
- B11 — higher, 7.42 PBM z-score against 500 random probes
- B12 — higher, 6.52 PBM z-score against 500 random probes
- B14 — higher, 3.72 PBM z-score against 500 random probes
- B15 — higher, 3.74 PBM z-score against 500 random probes
- B16 — higher, 6.66 PBM z-score against 500 random probes
- B17 — higher, 3.73 PBM z-score against 500 random probes
- B18 — higher, 6.8 PBM z-score against 500 random probes
- B19 — higher, 3.76 PBM z-score against 500 random probes
- B20 — higher, 7.41 PBM z-score against 500 random probes
- B21 — higher, 6.41 PBM z-score against 500 random probes

Target: RARg:RXRa (Homo sapiens, UniProt P13631;P19793 full;full)
Test: as above
Conditions: tags: His kept;His cleaved; copies: 1;1; label: surface-attached array probe
In short: as §1

RARg:RXRa, sequence (P13631 whole entry, chain 1 of 2): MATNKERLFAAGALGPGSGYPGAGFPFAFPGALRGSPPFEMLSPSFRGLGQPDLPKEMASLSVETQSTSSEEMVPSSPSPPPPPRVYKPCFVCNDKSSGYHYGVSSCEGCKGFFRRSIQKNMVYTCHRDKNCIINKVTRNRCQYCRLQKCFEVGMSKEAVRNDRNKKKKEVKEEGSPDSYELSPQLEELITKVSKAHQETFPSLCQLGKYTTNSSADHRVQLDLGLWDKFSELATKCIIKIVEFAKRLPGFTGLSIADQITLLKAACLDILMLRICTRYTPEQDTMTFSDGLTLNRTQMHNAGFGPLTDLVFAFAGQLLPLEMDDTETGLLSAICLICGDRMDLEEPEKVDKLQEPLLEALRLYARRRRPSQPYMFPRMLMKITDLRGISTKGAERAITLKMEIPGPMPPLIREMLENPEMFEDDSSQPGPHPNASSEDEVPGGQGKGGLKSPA
RARg:RXRa, sequence (P19793 whole entry, chain 2 of 2): as the sequence (P19793 whole entry) above

Point of comparison: B5, binding signal 7.89 PBM z-score against 500 random probes. Against it:
- B1 — higher, 9.04 PBM z-score against 500 random probes
- B2 — higher, 9.5 PBM z-score against 500 random probes
- B3 — higher, 8.73 PBM z-score against 500 random probes
- B4 — lower, 7.8 PBM z-score against 500 random probes
- B6 — lower, 7.61 PBM z-score against 500 random probes
- B7 — higher, 7.92 PBM z-score against 500 random probes
- B8 — higher, 9.63 PBM z-score against 500 random probes
